# Assay: soluble on expression in E. coli; label from the status in PepcDB or PDB records
row,Sequence,soluble on expression in E. coli
1,MKILLVFDFDNTIIDDNSDTWIVQCAPNKKLPIELRDSYRKGFWTEFMGRVFKYLGDKGVREHEMKRAVTSLPFTPGMVELFNFIRKNKDKFDCIIISDSNSVFIDWVLEAASFHDIFDKVFTNPAAFNSNGHLTVENYHTHSCNRCPKNLCKKVVLIEFVDKQLQQGVNYTQIVYIGDGGNDVCPVTFLKNDDVAMPRKGYTLQKTLSRMSQNLEPMEYSVVVWSSGVDIISHLQFLIKD,not soluble
2,MSSERQLAGRIVVPGEPLPEEVEASPPYVIDYKGVKRATVVGLLREKGDGGGRAFVKLKEIYVPQAGDVVIGLIQSVGIMNWFVDINSPYVAVLSVQDFLGRPFNPAVDDMQSLLKVGDYIKAKVVAFDKTRSPLLTVQGEGLGRIVRGKIVEISPAKVPRVIGRKMSMLKTLEEKTECKIFVARNGRIHLECPNEDLEAIAVMAIKIIDEEAYTSGLTKRIIKFIEEERRIREV,soluble
3,MGSDKIHHHHHHLGDHTLNQVTDTPLSQQHITQHTQVAPSRLAAAGLSASIMLLKRILKPFEHVQRHRHSWGQVIYASQGVLSVITPAGRYIVPPEQAVWVPPFVDHEVIALSQVQLSSLYLDDTQIGGFPPCCTCLNVKPVLQLLLQEVNAFMKSEAGLIDPDFKDSVMRLLMVIRDFMVLAPKVALDLPYPKDKKLLRITEALLADPSEQRTLVDWQREVGASARTLARLFKQQTGLSYSQWLQRLRLQVAIQMLSRGESVLTTALSLGYASGSAFGYMFRQLMGVAPSQYLLAQSTLPKVQCQK,not soluble
4,MGSDKIHHHHHHMRIGCVLARKGKMMMNGELAGFTIPRLGMGTMALAIEGRPDRDTAIRTIHAGLDAGVRYLDTAWSYYLPSEPGTGTAKDLGYGEKLVRDALASWNGPRDEVLVATKTGYRRTMEIPAFVAPVSDSPESDTQGRDSEGCSRRPGGERQHLQAAGSQYGWMADSRPETMIRDAKESALHLGVDTLDLLYSHGPDPEVAYEDQVGALKQLLNEGVIRYAGISRVDNAQIDIAREILGDKLIAVQNQFSPSHPDPEHTMEHCAELGLAFVCWSPLGGFLDAFDQRAYDPFRTVAGNHGCSYQRVVLAWELSRYERLFTIPSARNPQEINDSFAATELTLTQDELAMLNASVDARRG,not soluble
5,MTEKKSDRTAAKKRSEQAVHELVTRIDTHPGDADAYYELATVLVDLKSFAQAEELLMKALGLFQAQPAVVDKLHYGLGNVYYAAEDYPKAIQQFDSLGAQWKGAGYLMLAQSYMANGDHKRALAFALTALASQPDDVATLQVVAENLLALGNMAQAAQYYDQLLAIDPKNGRAIFDRGLVAMVQGTPYADYFERAQTLDPQYFEQGQQRLADIEKFMQQTPDSDQQLEHHHHHH,soluble
6,GSSHHHHHHSSGRENLYFQGHMARPGMERWRDRLALVTGASGGIGAAVARALVQQGLKVVGCARTVGNIEELAAECKSAGYPGTLIPYRCDLSNEEDILSMFSAIRSQHSGVDICINNAGLARPDTLLSGSTSGWKDMFNVNVLALSICTREAYQSMKERNVDDGHIININSMSGHRVLPLSVTHFYSATKYAVTALTEGLRQELREAQTHIRATCISPGVVETQFAFKLHDKDPEKAAATYEQMKCLKPEDVAEAVIYVLSTPAHIQIGDIQMRPTGS,soluble
7,RSLKNEELYHQSYDCVCVMFASIPDFKEFYTESDVNKEGLECLRLLNEIIADFDDLLSKPKFSGVEKIKTIGSTYMAATGLSAIPSQEHAQEPERQYMHIGTMVEFAYALVGKLDAINKHSFNDFKLRVGINHGPVIAGVIGAQKPQYDIWGNTVNVASRMDSTGVLDKIQVTEETSLILQTLGYTCTCRGIINVKGKGDLKTYFVNTEMSR,soluble
8,MSLSSHKPTVVLADSNDDFRSYLTSCLTEEFTIKSFRDGIEAMAYIKNEYPDLVICDTELQNMDGVELSSRLKTSCETSIIPIILYSSHIDINQHNRRKTSLADTFLQQPFSVTDLKLEMSILIKNTRFLRKSFLQRLFGEEFLETKASEILQDGKHPLISKVTKIILENLNNEKLTIDSIAKELGISRTSLYNKWTQLTGEALNKFILKIRMEKAHEMLKSGKYRVNEVPEKIGMKDMDNFREKYKKYFGKTPVDTIKNEGHHHHHH,soluble
9,MQVMASPPCTTEELSPPPGGSLVEYSGGSLRVPDNPVVAFIRGDGVGPEVVESALKVVDAAVKKVYGGSRRIVWWELLAGHLAREKCGELLPKATLEGIRLARVALKGPLETPVGTGYRSLNVAIRQALDLYANIRPVRYYGQPAPHKYADRVDMVIFRENTEDVYAGIEWPHDSPEAARIRRFLAEEFGISIREDAGIGVKPISRFATRRLMERALEWALRNGNTVVTIMHKGNIMKYTEGAFMRWAYEVALEKFREHVVTEQEVQEKYGGVRPEGKILVNDRIADNMLQQIITRPWDYQVIVAPNLNGDYISDAASALVGGIGMAAGMNMGDGIAVAEPVHGTAPKYAGKDLINPSAEILSASLLIGEFMGWREVKSIVEYAIRKAVQSKKVTQDLARHMPGVQPLRTSEYTETLIAYIDEADLNEVLAGKRG,soluble
10,MRPVLLLCCLFLSATAQAEDCSPQTSVGSWCELPLAALHPTQQNVGLLQVEDDQAKLAGKKPKALERYLRKKEIPVVIGPGGRFYLTDRHHLSSALWRLDPKQGVPVKVIGRLPQASDFWEKMQENHWVWLHDARGAEIPPEALPDALAGLGDDPYRALAGYAEDENAFDKDRQSYFIEFHWARYFGERMHWRPISRATLPDDLKQALRLACEPAARELPGYRQDCPH,soluble
11,MSSSIREEVHRHLGTVALMQPALHQQTHAPAPTEITHTLFRAYTRVPHDVGGEADVPIEYHEKEEEIWELNTFATCECLAWRGVWTAEERRRKQNCDVGQTVYLGMPYYGRWLLTAARILVDKQFVTLTELHNKIVEMRERVASGQGLGEYLPPKAK,soluble
12,MAIEHFSTLKQHLSSQIIGQEALVENLLIALLANGHLIVEGPPGLAKTRAVNALAQGLEADFHRIQFTPDLLPADLTGTDIYRPEDGTFVFQPGPLFQNLVLADEINRAPAKVQSALLEAMAEGQITVGRKTYDLPELFLVMATQNPIEQEGTYPLPEAQLDRFLMHIEIGYPDAESELAILKLNRGEALRSNANHGNDSSEKETSTKENSLRTLSQSEIFSAREQVLNIHMAPSLENYIVDLIIATRQPEKYDDKLSTWLAFGASPRATIALDRCARARAWLHNRDFVSPEDIQAVFHNALRHRILLSYQAEAEGITANQVLDYILTQVAVALEHHHHHH,soluble
13,MLKKRELQDCHALYELMVHPDVFPFVRQKASSYEEFLFMTKQLMEAEERGELISRTILDEWGNPIGTISLFDIQDGAGFLGTWLGKPYHGLGYNRRAKEAFFHELFYELSIETVFLRIRKVNVRSIKAAEKLPYVTPANETRRALLEQIGADVYNLYEITKDNYTLYTMRHPSFAHNEEQRKEA,not soluble
14,MGSSHHHHHHSSGLVPRGSHMSSEFIEAGAADRVRILSEALPYLQQFAGRTVVVKYGGAAMKQEELKEAVMRDIVFLACVGMRPVVVHGGGPEINAWLGRVGIEPQFHNGLRVTDADTMEVVEMVLVGRVNKDIVSRINTTGGRAVGFCGTDGRLVLARPHDQEGIGFVGEVNSVNSEVIEPLLERGYIPVISSVAADENGQSFNINADTVAGEIAAALNAEKLILLTDTRGILEDPKRPESLIPRLNIPQSRELIAQGIVGGGMIPKVDCCIRSLAQGVRAAHIIDGRIPHALLLEIFTDAGIGTMIVGSGYHEAHQPWQ,soluble
15,MGLTISSLFSRLFGKKQMRILMVGLDAAGKTTILYKLKLGEIVTTIPTIGFNVETVEYKNICFTVWDVGGQDKIRPLWRHYFQNTQGLIFVVDSNDRERIQEGAAVLEKMLLEDELQDAVLLLFANKQDLPNAMAISEMTDKLGLQSLRNRTWYVQATCATQGTGLYEGLDWLSHELSNVK,soluble
16,MSEQDATLDEFVEEGESESTDSANIDPNTLDQEQFGPFTLSTPGEWTAKRLGDIKQLITRGKQPTYDDDGVPVINQECIYWDGWHFENLRYLEEDVAEGWKEKYFPESGDVIVNSTGQGTLGRAQVYPGDQRRAIDSHVTLLRTDEQLCPHFHRYFFESHLGQALLYSMCVNGSTGQIELSKTRLDLLPTPLPPLEEQRKIASVLYNVDQAIQKTEAVIEKIERLKQGLLDDLFTKGLSESNSLRPSPEDHPGLYKKERRQTIPSEWNVESLQNLCVENITYGIVQPGPHVEDGVPYINTEDMTDGDIPTEGLSRTSPEIAEKYSRSQIHAEELVVTIRATIGAVDQVPPELEGANLTRGTARVVPGDKVDNTFLLWAIRSNNFQSELDARVKGTTFDEINLDQLGKIPVPHPDIDEQDRIVDELSTIEERMENEESYLEQLKRLKQGLMQDLLSGEVRTTDVDIPVLDAVAQHG,soluble
17,MGSDKIHHHHHHMENVREILQELMSKRKLDQRFNNVMKSVYSDPEVISFCEEHQDELSKEAIERGAAKLYEFVSERNKIKNNQATFLPGYQPELVLSNHLIDIEYVPTKQTHLLEQERHRKALVKSISMPKLIRHASLEGYYQEPERTDALAKTLAFVNEYLERPQDWHKGLYLTGSFGVGKTYLMGAMGNALADEGYSTTIVHFPSLAVELKNAIGSSNTIQTKIDAIKKAPILVIDDIGADSISSWIRDDVLGVILEYRMQEELPTFFTSNFSMDQLEREHLTVNQRGEAEPLKAKRLMERIKFLSEEVSMTGKNHRQD,not soluble
18,MGSDKIHHHHHHMPVLPVSSYKGSGPLANGHVQTMFPVLFRPMPVVEYHRQRLETPDGDFLDVDFSSAAAAAQSESIAVISHGLEGHSRRRYVQGMARVLNARGWDAAAWNFRGCSGQPNRLPRMYHSGDTQDLHTVVTACAQKGYRRILLVGVSMGGNQILKYLGEDPDRVDSRVCGAVVFSVPCDLVGAAQVLGRPQNSVYMRYFLRTLRQKIKAKHAMYPDTIQMDGLDSIRTFAEFDDRYTAPLHGFSGALDYWTKSSCRQFLSSVRVPALLVNALNDPFLSASCYPYREARQSGSLFFETTVTGGHVGFVQFNRQNIYWSEERLLSFMDEQGL,not soluble
19,QLTPTFYRETCPNLFPIVFGVIFDASFTDPRIGASLMRLHFHDCFVQGCDGSVLLNNTDTIESEQDALPNINSIRGLDVVNDIKTAVENSCPDTVSCADILAIAAEIASVLGGGPGWPVPLGRRDSLTANRTLANQNLPAPFFNLTQLKASFAVQGLNTLDLVTLSGGHTFGRARCSTFINRLYNFSNTGNPDPTLNTTYLEVLRARCPQNATGDNLTNLDLSTPDQFDNRYYSNLLQLNGLLQSDQELFSTPGADTIPIVNSFSSNQNTFFSNFRVSMIKMGNIGVLTGDEGEIRLQCNFVNG,soluble
20,MSLLVLGIESSCDETGVALYDTERGLRAHCLHTQMAMHAEYGGVVPELASRDHIRRLVPLTEGCLAQAGASYGDIDAVAFTQGPGLGGALLAGSSYANALALALDKPVIPVHHLEGHLLSPLLAEEKPDFPFVALLVSGGHTQIMAVRGIGDYALLGESVDDAAGEAFDKTAKLLGLLYPGGAKLSELAESGRFEAFVFPRPMIHSDDLQMSFSGLKTAVLTAVEKVRAENGADDIPEQTRNDICRAFQDAVVDVLAAKVKKALLQTGFRTVVVAGGVGANRKLRETFGNMTVQIPTPKGKPKHPSEKVSVFFPPTAYCTDNGAMIAFAGAMHLGKGREVGAFNVRPRWPLSEIVREGHHHHHH,soluble

# — the DeepSol protein solubility set
